± gives the standard error. This sample holds only a part of the variants without activity.
B1: glmS ribozyme (parent)
chain: AUAAAAGCGCCAGAACUACAGAAAUGUAGUUGACGAGGAGGAGGUUUAUCGAAUUUUCGGCGGAUGCCUCCAAA

How the values were obtained:
Details in all cases: with glucosamine-6-phosphate
glucosamine-6-phosphate [1] = variants of: B1; assay: self-cleavage kobs at 40 uM GlcN6P; higher = faster cleavage; RNA array
Method in brief: (§1)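 Barcoded ribozyme variants on sequenced MiSeq chips were transcribed in situ by E. coli RNA polymerase and followed at 37 °C through a hybridised Cy3 probe. Glucosamine-6-phosphate at 40 μM to 10 mM in HEPES/KCl/Mg(OAc)2 buffer was flowed in, and tiles were imaged over ~14 h. Signals were normalised to baseline and to non-cleaving reference variants, and per-tile medians were fit to one- or two-exponential decays to give kobs. Weighted Michaelis–Menten fits across concentrations gave kcat and KM.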

glucosamine-6-phosphate [2] = variants of: B1; assay: self-cleavage kobs at 160 uM GlcN6P; higher = faster cleavage; RNA array
Method in brief: as §1

glucosamine-6-phosphate [3] = variants of: B1; assay: self-cleavage kobs at 2500 uM GlcN6P; higher = faster cleavage; RNA array
Method in brief: as §1

glucosamine-6-phosphate [4] = variants of: B1; assay: self-cleavage kobs at 10000 uM GlcN6P; higher = faster cleavage; RNA array
Method in brief: as §1

glucosamine-6-phosphate [5] = variants of: B1; assay: self-cleavage kobs at 640 uM GlcN6P; higher = faster cleavage; RNA array
Method in brief: as §1

Variant | self-cleavage kobs at 40 uM GlcN6P (glucosamine-6-phosphate [1]) | self-cleavage kobs at 160 uM GlcN6P (glucosamine-6-phosphate [2]) | self-cleavage kobs at 2500 uM GlcN6P (glucosamine-6-phosphate [3]) | self-cleavage kobs at 10000 uM GlcN6P (glucosamine-6-phosphate [4]) | self-cleavage kobs at 640 uM GlcN6P (glucosamine-6-phosphate [5])
G32C G66U | < 1e-05 s⁻¹ | < 1e-05 s⁻¹ |  |  | 
U31C G32A G60U | < 1e-05 s⁻¹ |  | < 1e-05 s⁻¹ | < 1e-05 s⁻¹ | 
C34G G41C | < 1e-05 s⁻¹ | < 1e-05 s⁻¹ | < 1e-05 s⁻¹ | < 1e-05 s⁻¹ | 
C34G G41A | < 1e-05 s⁻¹ | < 1e-05 s⁻¹ |  | < 1e-05 s⁻¹ | < 1e-05 s⁻¹
C34G C50A | < 1e-05 s⁻¹ |  |  |  | < 1e-05 s⁻¹
A33U G37U C50G U69A | 8.34e-05 ± 2.3e-05 s⁻¹ |  |  | 0.000105 ± 2.5e-05 s⁻¹ | 
C34A C50U | < 1e-05 s⁻¹ | < 1e-05 s⁻¹ | < 1e-05 s⁻¹ | < 1e-05 s⁻¹ | < 1e-05 s⁻¹
A33C G43A U47G | < 1e-05 s⁻¹ | < 1e-05 s⁻¹ | < 1e-05 s⁻¹ |  | < 1e-05 s⁻¹
A33U A52C | < 1e-05 s⁻¹ | < 1e-05 s⁻¹ |  | < 1e-05 s⁻¹ | 
U31A U45G U54G C58A C61A | < 1e-05 s⁻¹ | < 1e-05 s⁻¹ |  | < 1e-05 s⁻¹ | 
G32A G43U C67U | < 1e-05 s⁻¹ |  | < 1e-05 s⁻¹ |  | 
G32A U54G G59A | < 1e-05 s⁻¹ |  |  |  | 
G32C G44U U56A | < 1e-05 s⁻¹ |  |  | < 1e-05 s⁻¹ | < 1e-05 s⁻¹
A33C A36G G62U G66A | < 1e-05 s⁻¹ |  | < 1e-05 s⁻¹ |  | < 1e-05 s⁻¹
A33C C50G C71U | 0.000772 ± 0.00027 s⁻¹ |  | 0.000589 ± 0.00017 s⁻¹ | 5.96e-05 ± 2.9e-05 s⁻¹ | 0.000204 ± 5.8e-05 s⁻¹
A33G U55C G59A | < 1e-05 s⁻¹ |  | < 1e-05 s⁻¹ | < 1e-05 s⁻¹ | < 1e-05 s⁻¹
C34G G43C | < 1e-05 s⁻¹ | < 1e-05 s⁻¹ | < 1e-05 s⁻¹ |  | < 1e-05 s⁻¹
C34G C58U | < 1e-05 s⁻¹ |  | < 1e-05 s⁻¹ | < 1e-05 s⁻¹ | < 1e-05 s⁻¹
C34G C58G | < 1e-05 s⁻¹ | < 1e-05 s⁻¹ |  | < 1e-05 s⁻¹ | < 1e-05 s⁻¹
U30G U56A G66A | 5.14e-05 ± 1.7e-05 s⁻¹ |  |  | 0.00252 ± 0.00061 s⁻¹ | 
G32U A52C U55G C61U | < 1e-05 s⁻¹ |  |  | < 1e-05 s⁻¹ | 
